T1: ICP4 (nuclear extract) (HSV-1 strain F) (UniProt P08392)
T1 sequence: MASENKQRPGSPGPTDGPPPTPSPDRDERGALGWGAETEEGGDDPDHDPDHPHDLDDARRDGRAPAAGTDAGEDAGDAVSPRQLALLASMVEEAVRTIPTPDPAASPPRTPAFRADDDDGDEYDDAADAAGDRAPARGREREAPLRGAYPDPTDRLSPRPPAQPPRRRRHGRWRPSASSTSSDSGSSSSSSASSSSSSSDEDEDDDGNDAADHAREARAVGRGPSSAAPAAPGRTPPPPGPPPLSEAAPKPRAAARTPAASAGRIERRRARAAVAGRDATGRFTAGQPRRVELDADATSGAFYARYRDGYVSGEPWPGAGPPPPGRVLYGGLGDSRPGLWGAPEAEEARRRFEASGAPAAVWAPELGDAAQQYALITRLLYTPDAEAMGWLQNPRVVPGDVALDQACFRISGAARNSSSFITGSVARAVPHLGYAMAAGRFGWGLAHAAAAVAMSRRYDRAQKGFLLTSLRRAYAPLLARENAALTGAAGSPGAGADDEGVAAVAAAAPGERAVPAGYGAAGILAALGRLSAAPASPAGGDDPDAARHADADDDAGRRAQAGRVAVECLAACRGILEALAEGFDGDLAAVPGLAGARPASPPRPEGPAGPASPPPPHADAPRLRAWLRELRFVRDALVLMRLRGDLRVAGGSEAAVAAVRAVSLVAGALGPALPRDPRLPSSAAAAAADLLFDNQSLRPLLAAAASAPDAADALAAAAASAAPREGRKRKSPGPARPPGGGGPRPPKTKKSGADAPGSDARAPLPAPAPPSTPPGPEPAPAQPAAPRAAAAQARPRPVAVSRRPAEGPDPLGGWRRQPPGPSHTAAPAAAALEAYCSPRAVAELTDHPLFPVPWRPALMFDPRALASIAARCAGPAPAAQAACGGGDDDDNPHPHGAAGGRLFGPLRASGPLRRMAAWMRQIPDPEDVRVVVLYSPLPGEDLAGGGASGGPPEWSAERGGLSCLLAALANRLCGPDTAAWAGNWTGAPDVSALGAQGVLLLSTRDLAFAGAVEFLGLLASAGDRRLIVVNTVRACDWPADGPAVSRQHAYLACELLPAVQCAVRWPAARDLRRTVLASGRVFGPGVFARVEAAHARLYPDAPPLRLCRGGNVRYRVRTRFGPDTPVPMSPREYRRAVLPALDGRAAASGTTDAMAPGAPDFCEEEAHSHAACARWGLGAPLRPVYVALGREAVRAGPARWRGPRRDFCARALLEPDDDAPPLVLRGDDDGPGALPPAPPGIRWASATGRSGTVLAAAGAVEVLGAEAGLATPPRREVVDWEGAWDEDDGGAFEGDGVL

T2: ufICP4 (ultrafiltrated ICP4) (HSV-1 strain F, UniProt P08392 1-1298)
T2 sequence: T1 sequence


Tests used:
[1] = target: T1, ICP4 (nuclear extract) (HSV-1 strain F); assay: pull-down; conditions: XL pull-down: oligos folded in 20 mM PB pH 7.4, 80 mM KCl, 4 C, 45 min, wash 50 mM Tris-HCl pH 7.5, 150 mM NaCl; ICP4 EMSA: 20 mM Tris-HCl pH 8, 25 mM KCl …
[2] = target: T2, ufICP4 (ultrafiltrated ICP4); assay: EMSA; 5-10x ufICP4; XL pull-down: oligos folded in 20 mM PB pH 7.4, 80 mM KCl, 4 C, 45 min, wash 50 mM Tris-HCl pH 7.5, 150 mM NaCl; ICP4 EMSA: 20 mM Tris-HCl pH 8, 25 mM KCl, 1.5; conditions: protein: native, chain copies: 2, label: 5' FAM
ICP8 [3] = target: T3, ICP8 (HSV-1, UniProt P04296 1-1196); assay: EMSA; 0-3 ug ICP8; XL pull-down: oligos folded in 20 mM PB pH 7.4, 80 mM KCl, 4 C, 45 min, wash 50 mM Tris-HCl pH 7.5, 150 mM NaCl; ICP4 EMSA: 20 mM Tris-HCl pH 8, 25 mM KCl, 1.5; conditions: protein: recombinant; tags: GST; label: 32P (Methods) / 33P
T3 sequence (P04296 whole entry): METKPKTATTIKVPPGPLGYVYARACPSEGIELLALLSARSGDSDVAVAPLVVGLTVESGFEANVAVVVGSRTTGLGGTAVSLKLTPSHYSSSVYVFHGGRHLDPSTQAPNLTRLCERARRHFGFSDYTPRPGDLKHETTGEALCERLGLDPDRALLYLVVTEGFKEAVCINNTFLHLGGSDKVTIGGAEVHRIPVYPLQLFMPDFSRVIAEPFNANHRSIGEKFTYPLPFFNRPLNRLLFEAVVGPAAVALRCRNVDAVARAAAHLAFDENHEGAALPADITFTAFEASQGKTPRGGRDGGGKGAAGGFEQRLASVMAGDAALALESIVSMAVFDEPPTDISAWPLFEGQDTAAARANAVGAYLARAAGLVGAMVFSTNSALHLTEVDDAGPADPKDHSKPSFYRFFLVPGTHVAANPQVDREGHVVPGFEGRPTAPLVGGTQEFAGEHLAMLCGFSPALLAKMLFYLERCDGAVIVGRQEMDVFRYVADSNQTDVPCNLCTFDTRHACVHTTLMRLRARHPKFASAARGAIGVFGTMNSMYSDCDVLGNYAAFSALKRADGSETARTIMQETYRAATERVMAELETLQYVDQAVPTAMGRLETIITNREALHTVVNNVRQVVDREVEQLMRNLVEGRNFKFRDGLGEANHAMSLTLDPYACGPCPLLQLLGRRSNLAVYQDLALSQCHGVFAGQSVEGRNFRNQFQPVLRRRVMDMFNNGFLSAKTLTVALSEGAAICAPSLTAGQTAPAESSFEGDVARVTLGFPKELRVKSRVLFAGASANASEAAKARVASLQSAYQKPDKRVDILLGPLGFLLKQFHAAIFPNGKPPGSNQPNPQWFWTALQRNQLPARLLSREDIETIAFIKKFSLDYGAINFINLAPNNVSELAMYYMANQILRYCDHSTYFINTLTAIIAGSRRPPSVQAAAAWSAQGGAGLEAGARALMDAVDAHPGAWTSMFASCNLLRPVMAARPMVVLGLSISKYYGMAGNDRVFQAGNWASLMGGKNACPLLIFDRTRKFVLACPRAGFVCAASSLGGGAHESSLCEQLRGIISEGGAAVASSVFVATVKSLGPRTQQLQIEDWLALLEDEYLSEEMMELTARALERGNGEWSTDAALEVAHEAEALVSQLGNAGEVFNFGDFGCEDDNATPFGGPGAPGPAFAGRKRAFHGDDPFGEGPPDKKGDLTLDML

ICP8 [4] = target: T3, ICP8; assay: EMSA; 0-3 ug ICP8; Na+ and K+ buffers; XL pull-down: oligos folded in 20 mM PB pH 7.4, 80 mM KCl, 4 C, 45 min, wash 50 mM Tris-HCl pH 7.5, 150 mM NaCl; ICP4 EMSA: 20 mM Tris-HCl pH 8, 25 mM KCl, 1.5; conditions: protein: recombinant; tags: GST; label: 32P (Methods) / 33P; G4

Molecule | binding signal [1] [fold vs IE3] | binding result (ICP8 [4]) | other results
TTTTTGGGGAGGGTGGGGAGGGTGGGGAAGG [B-myc] | 2.5 |  | 
TTTTTCCGATCGTCCACACGGAGC (double strand) [B-IE3 (ICP4 consensus; IE-CS)] |  |  | binding signal (fold vs IE3 (reference)) [1]: 1
TTTTTGGGGGCGAGGGGCGGGAGGGGGCGAGGGGGGGGGCGAGGGGCGGGAGGGGGCGAGGGG [B-un2L2] | 2.5 |  | 
CGGGGCGGGCCGGGGGCGGGG [B-VEGF] | 2.5 |  | 
GGAGTCGTGTCGCGTGTCGAGCGTGTGTAGTGG (ssDNA) [F-G-rich-scrambled] |  |  | binding result ([2]; unfolded): no binding
TTTTTTTTTTTTTTTTTTTTTTTTTTTTTT (ssDNA) [PolyT (T30)] |  |  | binding result (ICP8 [3]): binds
GGGTTAGGGTTAGGGTTAGGG (structured_DNA) [hTel (radiolabelled)] |  | no binding | 
GGGAGGCGTGGCCTGGGCGGGACTGGGG (structured_DNA) [LTR-III (radiolabelled)] |  | no binding | 
GGGGGCGAGGGGCGGGAGGGGGCGAGGGG (structured_DNA) [un2 (radiolabelled)] |  | no binding | 
GGGGGCGAGGGGCGGGAGGGGGCGAGGGG (structured_DNA) [F-un2] |  |  | binding result ([2]; G4): binds

Source: paper PMC8087788, “Parallel G-quadruplexes recruit the HSV-1 transcription factor ICP4 to promote viral transcription in herpes virus-infected human cells”
